Measurements from patent US12012457 (SYNTHEKINE, dated 2024).
Positions count from the first letter of the chain named.

B1: mIL23R VHH29 (VHH)
VHH: QVQLQESGGGLVQPGGSLRLSCAASGFTFSTSAMTWVRQAPGKGLDWVSGIDSGGTTVYADSVKGRFTISKDNAKNTLYLQMNSLKTEDTAVYYCATGLPWGNTWRTRGQGTQVTVSS
B2: mIL23R VHH14 (VHH)
VHH: B1 VHH with S30R, K71R, N73S, T97M
B3: mIL23R VHH7 (VHH)
VHH: B1 VHH with T31R, K71R, N73S, T97I
B4: mIL23R VHH35 (VHH)
VHH: B1 VHH with S21A, A23S, T31S, F67A, S70L
B5: mIL23R VHH39 (VHH)
VHH: B1 VHH with T31R, K71R, N73S, S84G, T97I
B6: mIL23R VHH33 (VHH)
VHH: B1 VHH with A23T, A24T, T31S, R108T
B7: mIL23R VHH38 (VHH)
VHH: B1 VHH with T104I
B8: mIL23R VHH20 (VHH)
VHH: B1 VHH with T31S, F67A, S70L
B9: mIL23R VHH41 (VHH)
VHH: B1 VHH with S21T
B10: mIL23R VHH32 (VHH)
VHH: B1 VHH with Q13R, T31R, K71R, N73S, T97I
B11: mIL23R VHH21 (VHH)
VHH: B1 VHH with A24T, T31S, R108T
B12: mIL23R VHH37 (VHH)
VHH: B1 VHH with A24T, T31S, S32G, R108T
B13: hIL23R VHH19 (VHH)
VHH: QVQLQESGGGSVQAGGSLRLSCAASGYTSCSYDMSWYRQAPGKKREFVSAIHSDGTTSYADSMKGRFTISQDNAKNTVYLQMNSLKPEDTAMYYCKTDPNYSDHVCPPYWGRGTQVTVSS
B14: hIL23R VHH12 (VHH)
VHH: QVQLQESGGGSVQAGGSLRLSCAASGYTSSSRCMGWFRQAPGKEREGVARIYTPTRTTWYADSVKGRFTISQDNAKNTVYLEMASLKPEDTAKYFCAAGASCAVDLFSYWGQGTQVTVSS
B15: hIL23R VHH2 (VHH)
VHH: QVQLQESGGGSVQAGGSLRLSCAASGYTYCSYDMSWYRQAPGKKREFVSSFNSDGSTSYADSVKGRFTISQDNAKNTVYLQMNSLKPEDTAMYYCKTDPHADWGAPCGGDYWGQGTQVTVSS
B16: hIL23R VHH4 (VHH)
VHH: B15 VHH with Y27S, S31T, S35T, K44R, S50A, F51I, H100N, A101S, D102G
B17: hIL23R VHH3 (VHH)
VHH: QVQLQESGGGSVQAGESLRLSCAASGYTYCTYDMTWYRQAPGKKREFVSGIHSDGTTSYADSVKGRFTISQDNAENTVYLQMNSLKPEDTAMYYCKTDPIATITRRCDSYWGQGTQVTVSS
B18: hIL23R VHH6 (VHH)
VHH: QVQLQESGGGLVQPGGSLRLSCAASGYTYCSYDMGWYRQAPGKKRKFVSSINSDGTTSYADSVKGRFTISQDNAKNTVYLQMNSLKPEDTAMYYCKTDPQTRPGKPCADYWGQGTQVTVSS
B19: hIL23R VHH9 (VHH)
VHH: B18 VHH with P14A, G35S, K44E
B20: hIL23R VHH10 (VHH)
VHH: QVQLQESGGGSVQAGGSLKLSCAASGYTYCNYDIAWYRQAPGKERKFVSAIASDGSTSYADSVKGRFTISQDNAKNTVYLQMNSLKPEDTAMYYCKTDPIATMTRRCDPYWGQGTQVTVSS
B21: hIL23R VHH18 (VHH)
VHH: B20 VHH with K19R, S21A
B22: hIL23R VHH16 (VHH)
VHH: B20 VHH with Q13E, S17A, K19T, A23V
B23: hIL23R VHH11 (VHH)
VHH: B17 VHH with E16G, T31S, G50A, H52D, T56S, E75K, T104S
B24: hIL23R VHH7 (VHH)
VHH: B20 VHH with K19R, S56I, A101S, M103I, R106I
B25: hIL23R VHH13 (VHH)
VHH: QVQLQESGGGSVQAGGSLRLSCAASGYTYCSYDMKWYRQAPGKKREFVSAIDSDGSTSYADSVKGRFTISQDNAKNTVYLQMNSLKPEDTAMYYCKTEGTIPVGVCPNYWGQGTQVTVSS
B26: hIL23R VHH14 (VHH)
VHH: B25 VHH with S11L, A14P, I101V
B27: hIL23R VHH8 (VHH)
VHH: B25 VHH with G10D, K44E, A50G, T57I, V105A
B28: hIL23R VHH17 (VHH)
VHH: QVQLQESGGGSVQAGGSLRLSCTASGYTFSTMKYMGWFRQAPGKEREGVAAIWIAAGNTYYADSVKGRFTISQDNTKNTVYLQMNSLKPEDTALYYCAAARYGFVPSTWYLPERYNYWGQGTQVTVSS
B29: hIL23R VHH1 (VHH)
VHH: QVQLQESGGGSVQAGGSLRLSCAASGYTYCSYDMSWYRQAPGKKREFVSAFNSDGTTSYADSVKGRFTISQDKAKNTVYLQMNSLKPEDTAMYYCKTDPHVQSSGGYCPPYWGQGTQVTVSS
B30: hIL23R VHH5 (VHH)
VHH: B29 VHH with F51I, N52A, T56S, V63L, K73N
B31: hIL23R VHH15 (VHH)
VHH: QVQLQESGGGSVQAGGSLRLSCAASPGTYTSRYMGWFRQAPGKEREGVATIWPAGGNTVYADSVKGRFTISQDGAKKTVYLQMNSLKPEDTAMYYCAAAKYGGTSLAPYTYNYWGQGTQVTVSS

Each binder was assayed against T1, extracellular domain of mouse IL23R (mIL23R ECD) (mouse, UniProt Q8K4B4 24-374) (assay: periplasmic extract ELISA (PE-ELISA), 96-well plate, colorimetric).
T1 construct: also called mIL-23 ECD antigen
T1 sequence: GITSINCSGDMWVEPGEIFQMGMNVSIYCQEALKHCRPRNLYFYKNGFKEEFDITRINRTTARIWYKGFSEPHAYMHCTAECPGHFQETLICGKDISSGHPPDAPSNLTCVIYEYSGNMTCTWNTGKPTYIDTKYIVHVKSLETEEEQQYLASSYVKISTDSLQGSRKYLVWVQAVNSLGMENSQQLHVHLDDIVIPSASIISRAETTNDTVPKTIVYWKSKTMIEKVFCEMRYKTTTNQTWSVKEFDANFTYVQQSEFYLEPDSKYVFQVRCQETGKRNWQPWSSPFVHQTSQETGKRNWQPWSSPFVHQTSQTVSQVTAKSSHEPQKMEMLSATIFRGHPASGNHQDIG

Binding result, binds:
B1, B2, B3, B4, B5, B6, B7, B8, B9, B10, B11, B12

These binders were tested against T2, extracellular domain of human IL23R (hIL23R ECD) (human, UniProt Q5VWK5 24-355) in the same assay as above.
T2 construct: also called hIL-23 ECD antigen
T2 sequence: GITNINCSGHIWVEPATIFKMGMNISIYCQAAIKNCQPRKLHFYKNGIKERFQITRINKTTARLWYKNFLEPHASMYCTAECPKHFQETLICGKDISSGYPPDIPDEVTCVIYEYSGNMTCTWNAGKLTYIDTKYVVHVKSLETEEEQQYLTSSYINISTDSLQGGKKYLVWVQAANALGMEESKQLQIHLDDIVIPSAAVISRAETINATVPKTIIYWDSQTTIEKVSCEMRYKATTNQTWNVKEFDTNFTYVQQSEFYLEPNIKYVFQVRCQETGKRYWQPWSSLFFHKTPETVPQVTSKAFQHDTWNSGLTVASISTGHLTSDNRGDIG

Binding result, binds:
B13, B14, B15, B16, B17, B18, B19, B20, B21, B22, B23, B24, B25, B26, B27, B28, B29, B30, B31
